*1 amine or outer side, *2 acyl side, *3 side chain or, on linkers, in order; H or OH if unused. Bridges are numbered along the chain shown (N, C = ends). [ ]: non-standard residue; d: D form. The star is where a group is joined. C20 diacid = O=C(O)CCCCCCCCCCCCCCCCCCC(=O)*; γGlu = O=C(O)[C@H](CCC(=O)[*:2])N[*:1]; Hyp = O=C(O)[C@@H]1C[C@@H](O)CN1; NMeI = CC[C@H](C)[C@H](NC)C(=O)O; Aad = N[C@@H](CCCC(=O)O)C(=O)O; Sar = CNCC(=O)O
B1: [19CD]-isoGlu-R-C( )-NTAT-C( )-ATQRLAHFLQRSSF-Gly(Me)-A-Ile(Me)-LSSTEVGSSTP-NH2 (Compd. 85) (peptide)
peptide: {C20 diacid}-[γGlu]RCNTATCATQRLAHFLQRSSF[Sar]A[NMeI]LSSTEVGSSTP-NH2
modifications: disulfide 3-8
SMILES: CC[C@H](C)[C@@H](C(=O)N[C@@H](CC(C)C)C(=O)N[C@@H](CO)C(=O)N[C@@H](CO)C(=O)N[C@H](C(=O)N[C@@H](CCC(=O)O)C(=O)N[C@H](C(=O)NCC(=O)N[C@@H](CO)C(=O)N[C@@H](CO)C(=O)N[C@H](C(=O)N1CCC[C@H]1C(N)=O)[C@@H](C)O)C(C)C)[C@@H](C)O)N(C)C(=O)[C@H](C)NC(=O)CN(C)C(=O)[C@H](Cc1ccccc1)NC(=O)[C@H](CO)NC(=O)[C@H](CO)NC(=O)[C@H](CCCNC(=N)N)NC(=O)[C@H](CCC(N)=O)NC(=O)[C@H](CC(C)C)NC(=O)[C@H](Cc1ccccc1)NC(=O)[C@H](Cc1c[nH]cn1)NC(=O)[C@H](C)NC(=O)[C@H](CC(C)C)NC(=O)[C@H](CCCNC(=N)N)NC(=O)[C@H](CCC(N)=O)NC(=O)[C@@H](NC(=O)[C@H](C)NC(=O)[C@@H]1CSSC[C@H](NC(=O)[C@H](CCCNC(=N)N)NC(=O)CC[C@H](NC(=O)CCCCCCCCCCCCCCCCCCC(=O)O)C(=O)O)C(=O)N[C@@H](CC(N)=O)C(=O)N[C@@H]([C@@H](C)O)C(=O)N[C@@H](C)C(=O)N[C@@H]([C@@H](C)O)C(=O)N1)[C@@H](C)O
B2: [19CD]-isoGlu-R-C( )-NTAT-C( )-ATQRLAHFLERSSF-Gly(Me)-A-Ile(Me)-LSSTEVGSSTP-NH2 (Compd. 84) (peptide)
peptide: {C20 diacid-γGlu}-RCNTATCATQRLAHFLERSSF[Sar]A[NMeI]LSSTEVGSSTP-NH2
modifications: disulfide 2-7
SMILES: CC[C@H](C)[C@@H](C(=O)N[C@@H](CC(C)C)C(=O)N[C@@H](CO)C(=O)N[C@@H](CO)C(=O)N[C@H](C(=O)N[C@@H](CCC(=O)O)C(=O)N[C@H](C(=O)NCC(=O)N[C@@H](CO)C(=O)N[C@@H](CO)C(=O)N[C@H](C(=O)N1CCC[C@H]1C(N)=O)[C@@H](C)O)C(C)C)[C@@H](C)O)N(C)C(=O)[C@H](C)NC(=O)CN(C)C(=O)[C@H](Cc1ccccc1)NC(=O)[C@H](CO)NC(=O)[C@H](CO)NC(=O)[C@H](CCCNC(=N)N)NC(=O)[C@H](CCC(=O)O)NC(=O)[C@H](CC(C)C)NC(=O)[C@H](Cc1ccccc1)NC(=O)[C@H](Cc1c[nH]cn1)NC(=O)[C@H](C)NC(=O)[C@H](CC(C)C)NC(=O)[C@H](CCCNC(=N)N)NC(=O)[C@H](CCC(N)=O)NC(=O)[C@@H](NC(=O)[C@H](C)NC(=O)[C@@H]1CSSC[C@H](NC(=O)[C@H](CCCNC(=N)N)NC(=O)CC[C@H](NC(=O)CCCCCCCCCCCCCCCCCCC(=O)O)C(=O)O)C(=O)N[C@@H](CC(N)=O)C(=O)N[C@@H]([C@@H](C)O)C(=O)N[C@@H](C)C(=O)N[C@@H]([C@@H](C)O)C(=O)N1)[C@@H](C)O
B3: [19CD]-isoGlu-R-C( )-NTAT-C( )-ATQRLA-Aad-FLQRSSF-Gly(Me)-A-Ile(Me)-LSSTEVGSST-Hyp-NH2 (Compd. 87) (peptide)
peptide: {C20 diacid-γGlu}-RCNTATCATQRLA[Aad]FLQRSSF[Sar]A[NMeI]LSSTEVGSST[Hyp]-NH2
modifications: disulfide 2-7
SMILES: CC[C@H](C)[C@@H](C(=O)N[C@@H](CC(C)C)C(=O)N[C@@H](CO)C(=O)N[C@@H](CO)C(=O)N[C@H](C(=O)N[C@@H](CCC(=O)O)C(=O)N[C@H](C(=O)NCC(=O)N[C@@H](CO)C(=O)N[C@@H](CO)C(=O)N[C@H](C(=O)N1C[C@H](O)C[C@H]1C(N)=O)[C@@H](C)O)C(C)C)[C@@H](C)O)N(C)C(=O)[C@H](C)NC(=O)CN(C)C(=O)[C@H](Cc1ccccc1)NC(=O)[C@H](CO)NC(=O)[C@H](CO)NC(=O)[C@H](CCCNC(=N)N)NC(=O)[C@H](CCC(N)=O)NC(=O)[C@H](CC(C)C)NC(=O)[C@H](Cc1ccccc1)NC(=O)[C@H](CCCC(=O)O)NC(=O)[C@H](C)NC(=O)[C@H](CC(C)C)NC(=O)[C@H](CCCNC(=N)N)NC(=O)[C@H](CCC(N)=O)NC(=O)[C@@H](NC(=O)[C@H](C)NC(=O)[C@@H]1CSSC[C@H](NC(=O)[C@H](CCCNC(=N)N)NC(=O)CC[C@H](NC(=O)CCCCCCCCCCCCCCCCCCC(=O)O)C(=O)O)C(=O)N[C@@H](CC(N)=O)C(=O)N[C@@H]([C@@H](C)O)C(=O)N[C@@H](C)C(=O)N[C@@H]([C@@H](C)O)C(=O)N1)[C@@H](C)O
B4: [19CD]-isoGlu-R-C( )-QTAT-C( )-ATDRLAHFLQRSSF-Gly(Me)-A-Ile(Me)-LSSTEVGSNTP-NH2 (Compd. 92) (peptide)
peptide: {C20 diacid}-[γGlu]RCQTATCATDRLAHFLQRSSF[Sar]A[NMeI]LSSTEVGSNTP-NH2
modifications: disulfide 3-8
SMILES: CC[C@H](C)[C@@H](C(=O)N[C@@H](CC(C)C)C(=O)N[C@@H](CO)C(=O)N[C@@H](CO)C(=O)N[C@H](C(=O)N[C@@H](CCC(=O)O)C(=O)N[C@H](C(=O)NCC(=O)N[C@@H](CO)C(=O)N[C@@H](CC(N)=O)C(=O)N[C@H](C(=O)N1CCC[C@H]1C(N)=O)[C@@H](C)O)C(C)C)[C@@H](C)O)N(C)C(=O)[C@H](C)NC(=O)CN(C)C(=O)[C@H](Cc1ccccc1)NC(=O)[C@H](CO)NC(=O)[C@H](CO)NC(=O)[C@H](CCCNC(=N)N)NC(=O)[C@H](CCC(N)=O)NC(=O)[C@H](CC(C)C)NC(=O)[C@H](Cc1ccccc1)NC(=O)[C@H](Cc1c[nH]cn1)NC(=O)[C@H](C)NC(=O)[C@H](CC(C)C)NC(=O)[C@H](CCCNC(=N)N)NC(=O)[C@H](CC(=O)O)NC(=O)[C@@H](NC(=O)[C@H](C)NC(=O)[C@@H]1CSSC[C@H](NC(=O)[C@H](CCCNC(=N)N)NC(=O)CC[C@H](NC(=O)CCCCCCCCCCCCCCCCCCC(=O)O)C(=O)O)C(=O)N[C@@H](CCC(N)=O)C(=O)N[C@@H]([C@@H](C)O)C(=O)N[C@@H](C)C(=O)N[C@@H]([C@@H](C)O)C(=O)N1)[C@@H](C)O
B5: [19CD]-isoGlu-R-C( )-NTAT-C( )-ATQRLA-Aad-FLQRSSF-Gly(Me)-A-Ile(Me)-LSSTEVGSNT-Hyp-NH2 (Compd. 86) (peptide)
peptide: {C20 diacid-γGlu}-RCNTATCATQRLA[Aad]FLQRSSF[Sar]A[NMeI]LSSTEVGSNT[Hyp]-NH2
modifications: disulfide 2-7
SMILES: CC[C@H](C)[C@@H](C(=O)N[C@@H](CC(C)C)C(=O)N[C@@H](CO)C(=O)N[C@@H](CO)C(=O)N[C@H](C(=O)N[C@@H](CCC(=O)O)C(=O)N[C@H](C(=O)NCC(=O)N[C@@H](CO)C(=O)N[C@@H](CC(N)=O)C(=O)N[C@H](C(=O)N1C[C@H](O)C[C@H]1C(N)=O)[C@@H](C)O)C(C)C)[C@@H](C)O)N(C)C(=O)[C@H](C)NC(=O)CN(C)C(=O)[C@H](Cc1ccccc1)NC(=O)[C@H](CO)NC(=O)[C@H](CO)NC(=O)[C@H](CCCNC(=N)N)NC(=O)[C@H](CCC(N)=O)NC(=O)[C@H](CC(C)C)NC(=O)[C@H](Cc1ccccc1)NC(=O)[C@H](CCCC(=O)O)NC(=O)[C@H](C)NC(=O)[C@H](CC(C)C)NC(=O)[C@H](CCCNC(=N)N)NC(=O)[C@H](CCC(N)=O)NC(=O)[C@@H](NC(=O)[C@H](C)NC(=O)[C@@H]1CSSC[C@H](NC(=O)[C@H](CCCNC(=N)N)NC(=O)CC[C@H](NC(=O)CCCCCCCCCCCCCCCCCCC(=O)O)C(=O)O)C(=O)N[C@@H](CC(N)=O)C(=O)N[C@@H]([C@@H](C)O)C(=O)N[C@@H](C)C(=O)N[C@@H]([C@@H](C)O)C(=O)N1)[C@@H](C)O
B6: [19CD]-isoGlu-R-C( )-QTAT-C( )-ATDRLAHFLQRSSF-Gly(Me)-A-Ile(Me)-LSSTEVGSGT-Hyp-NH2 (Compd. 91) (peptide)
peptide: {C20 diacid}-[γGlu]RCQTATCATDRLAHFLQRSSF[Sar]A[NMeI]LSSTEVGSGT[Hyp]-NH2
modifications: disulfide 3-8
SMILES: CC[C@H](C)[C@@H](C(=O)N[C@@H](CC(C)C)C(=O)N[C@@H](CO)C(=O)N[C@@H](CO)C(=O)N[C@H](C(=O)N[C@@H](CCC(=O)O)C(=O)N[C@H](C(=O)NCC(=O)N[C@@H](CO)C(=O)NCC(=O)N[C@H](C(=O)N1C[C@H](O)C[C@H]1C(N)=O)[C@@H](C)O)C(C)C)[C@@H](C)O)N(C)C(=O)[C@H](C)NC(=O)CN(C)C(=O)[C@H](Cc1ccccc1)NC(=O)[C@H](CO)NC(=O)[C@H](CO)NC(=O)[C@H](CCCNC(=N)N)NC(=O)[C@H](CCC(N)=O)NC(=O)[C@H](CC(C)C)NC(=O)[C@H](Cc1ccccc1)NC(=O)[C@H](Cc1c[nH]cn1)NC(=O)[C@H](C)NC(=O)[C@H](CC(C)C)NC(=O)[C@H](CCCNC(=N)N)NC(=O)[C@H](CC(=O)O)NC(=O)[C@@H](NC(=O)[C@H](C)NC(=O)[C@@H]1CSSC[C@H](NC(=O)[C@H](CCCNC(=N)N)NC(=O)CC[C@H](NC(=O)CCCCCCCCCCCCCCCCCCC(=O)O)C(=O)O)C(=O)N[C@@H](CCC(N)=O)C(=O)N[C@@H]([C@@H](C)O)C(=O)N[C@@H](C)C(=O)N[C@@H]([C@@H](C)O)C(=O)N1)[C@@H](C)O

Target: T1, human amylin receptor 3 (hAMYR3), hCTR2 co-expressed with human receptor activity modifying protein 3 (hRAMP3) (human, UniProt P30988 25-474; O60896 24-148)
T1 sequence (looked up) 1: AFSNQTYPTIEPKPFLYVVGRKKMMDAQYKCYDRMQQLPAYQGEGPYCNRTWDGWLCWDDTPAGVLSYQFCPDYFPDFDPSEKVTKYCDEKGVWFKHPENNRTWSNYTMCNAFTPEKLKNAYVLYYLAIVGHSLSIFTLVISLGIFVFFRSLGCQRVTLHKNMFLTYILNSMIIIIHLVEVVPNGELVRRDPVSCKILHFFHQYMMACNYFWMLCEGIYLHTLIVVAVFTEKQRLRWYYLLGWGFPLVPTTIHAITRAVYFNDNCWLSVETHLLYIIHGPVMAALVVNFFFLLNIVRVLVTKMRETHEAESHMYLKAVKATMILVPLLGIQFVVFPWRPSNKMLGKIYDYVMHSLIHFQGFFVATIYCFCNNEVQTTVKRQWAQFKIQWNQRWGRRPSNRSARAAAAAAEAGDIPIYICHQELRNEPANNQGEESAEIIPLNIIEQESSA
T1 sequence (looked up) 2: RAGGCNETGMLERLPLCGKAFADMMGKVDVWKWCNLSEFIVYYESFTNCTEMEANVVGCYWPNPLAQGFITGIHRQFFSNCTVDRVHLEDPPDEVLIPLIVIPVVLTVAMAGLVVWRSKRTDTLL
Assay: cell-based or functional assay

Row | Binder | hAMYR3 EC50 (nM); cAMP induction [nM]
1 | B1 | 0.14
2 | B2 | 0.54
3 | B3 | 0.13
4 | B4 | 0.22
5 | {C20 diacid-γGlu}-RCQTATCATERLAHFLQRSSF[Sar]A[NMeI]LSSTEVGSGT[Hyp]-NH2 (disulfide 2-7) [[19CD]-isoGlu-R-C( )-QTAT-C( )-ATERLAHFLQRSSF-Gly(Me)-A-Ile(Me)-LSSTEVGSGT-Hyp-NH2 (Compd. 90)] | 0.24
6 | {C20 diacid}-[γGlu]RCGTATCATERLAHFLTRSSF[Sar]A[NMeI]LSSTEVGSST[Hyp]-NH2 (disulfide 3-8) [[19CD]-isoGlu-R-C( )-GTAT-C( )-ATERLAHFLTRSSF-Gly(Me)-A-Ile(Me)-LSSTEVGSST-Hyp-NH2 (Compd. 9)] | 0.29
7 | B5 | 0.15
8 | B6 | 0.17
